Measurements taken from publication PMC7335789, “Bifurcated binding of the OmpF receptor underpins import of the bacteriocin colicin N into Escherichia coli” (The Journal of Biological Chemistry, 2020).
Ends that are not written are not given here.

B4: OmpF (natural protein, E. coli (endogenous in B^E3000), UniProt P02931 23-362, looked up)
chain: AEIYNKDGNKVDLYGKAVGLHYFSKGNGENSYGGNGDMTYARLGFKGETQINSDLTGYGQWEYNFQGNNSEGADAQTGNKTRLAFAGLKYADVGSFDYGRNYGVVYDALGYTDMLPEFGGDTAYSDDFFVGRVGGVATYRNSNFFGLVDGLNFAVQYLGKNERDTARRSNGDGVGGSISYEYEGFGIVGAYGAADRTNLQEAQPLGNGKKAEQWATGLKYDANNIYLAANYGETRNATPITNKFTNTSGFANKTQDVLLVAQYQFDFGLRPSIAYTKSKAKDVEGIGDVDLVNYFEVGATYYFNKNMSTYVDYIINQIDSDNKLGVGSDDTVAVGIVYQF
notes: also called OmpF trimer; purified OmpF lacking LPS

Legend:
[1] = target: B4; experiment: ITC; MicroCal ITC200, 25 C, 20 mM potassium phosphate pH 6.5, 1% beta-OG; purified OmpF trimer without LPS in the cell, ColN construct or peptide in the syringe; settings: both partners purified
[2] = target: B4; experiment: ITC; settings: one partner purified
[3] = target: T1, OmpF on E. coli cells (E. coli (endogenous in JW2203-1, …, UniProt P02931 23-362)); experiment: widefield fluorescence microscopy of labelled cells; settings: one partner purified
T1 sequence (looked up): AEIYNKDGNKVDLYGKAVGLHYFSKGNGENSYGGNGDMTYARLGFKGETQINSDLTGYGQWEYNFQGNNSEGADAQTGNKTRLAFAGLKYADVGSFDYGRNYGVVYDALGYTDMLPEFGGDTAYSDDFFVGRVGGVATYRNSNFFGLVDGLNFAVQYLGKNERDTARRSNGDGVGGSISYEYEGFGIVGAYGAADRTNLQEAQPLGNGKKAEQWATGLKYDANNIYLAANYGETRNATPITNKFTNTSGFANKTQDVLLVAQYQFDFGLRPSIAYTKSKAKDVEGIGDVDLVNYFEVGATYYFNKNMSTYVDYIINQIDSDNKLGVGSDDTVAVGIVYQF

[4] = target: the molecule itself; experiment: native MS; 10 uM OmpF and 10 uM ColN in 100 mM ammonium acetate pH 6.9, 1% beta-OG, trypsin 37 C 2 h, gel filtration, OmpF fractions analysed in 200 mM ammonium acetate, 1% beta-OG

B1: ColN^91-185 (ColN central domain) (domain or fragment)
chain: SAKVGEITITPDNSKPGRYISSNPEYSLLAKLIDAESIKGTEVYTFHTRKGQYVKVTVPDSNIDKMRVDYVNWKGPKYNNKLVKRFVSQFLLFRK
notes: also called ColN-R
Kd [1]: 14000 nM | dH [1]: -3.8 kcal/mol | stoichiometry N [1]: 3.82 ColN^90-185/OmpF

B2: ColN^1-185 (ColN without the pore forming domain) (domain or fragment)
chain: MGSNGADNAHNNAFGGGKNPGIGNTSGAGSNGSASSNRGNSNGWSWSNKPHKNDGFHSDGSYHITFHGDNNSKPKPGGNSGNRGNNGDGASAKVGEITITPDNSKPGRYISSNPEYSLLAKLIDAESIKGTEVYTFHTRKGQYVKVTVPDSNIDKMRVDYVNWKGPKYNNKLVKRFVSQFLLFRK
Kd [2]: 119 nM | dH [2]: -38.8 kcal/mol | Kd [1]: 214 nM | dH [1]: -27.7 kcal/mol | stoichiometry N [1]: 2.69 ColN^2-185/OmpF

B3: ColN^1-185-mCherry (domain or fragment)
chain: MGSNGADNAHNNAFGGGKNPGIGNTSGAGSNGSASSNRGNSNGWSWSNKPHKNDGFHSDGSYHITFHGDNNSKPKPGGNSGNRGNNGDGASAKVGEITITPDNSKPGRYISSNPEYSLLAKLIDAESIKGTEVYTFHTRKGQYVKVTVPDSNIDKMRVDYVNWKGPKYNNKLVKRFVSQFLLFRK
notes: also called fluorescently labeled ColN
binding to cells with OmpF and OmpC (BW25113) relative to OmpF-only cells [3]: ~0.5 fold

B4
stoichiometry N [4]: 3

B5: ColN^2-19 peptide (peptide)
peptide: GSNGADNAHNNAFGGGKN-NH2
notes: also called ColN-OBS; ColN OBS; source: synthetic peptide, bought: Activotec
Kd [1]: 1400 nM | dH [1]: -17.9 kcal/mol | stoichiometry N [1]: 3.67 peptide/OmpF
